From article PMC6497099, “Structural basis for oligomerization of the prokaryotic peptide transporter PepTSo2” (Acta Crystallographica. Section F, Structural Biology …, 2019)

B1: PepTSo2 from Shewanella oneidensis, purified, His6 tag cleaved by TEV protease (natural protein, S. oneidensis)
chain: MTLGTNQVSKTHSFMTVSLIELWERFGYYGMQALIVYFMVQRLGFDDSRANLVWSACAALIYVSPAIGGWVGDKILGTKRTMLLGAGILSVGYALMTVPTENTWFMFSALGVIVVGNGLFKPNAGNLVRKIYEGDDSKIDSAFTIYYMAVNVGSTFSMLLTPWIKDYVNAQYGNEFGWHAAFAVCCVGILVGLGNYALMHKSLANYGSEPDTRPVNKKSLAIVLALAALSVVASAIILEYEDVARVFVYAAGVAVLGIFFHLIRTSEPSERAGLIAALILTVQTVFFFIFYQQMSTSLALFALRNVDWDFQVFGTHLWTWSPAQFQALNPIWIMVLSPVLAWSYSWAGRNNKDFSIAAKFALGFAVVAIGFFIYGFAGQFAVNGKTSSWVMIWGYASYSLGELLVSGLGLAMIARYVPARMGGFMMGAYFVASGISQYLGGVVANFASVPQDLVDPLQTLPVYTNLFNKLGVAAVVCTIIALAVLPLMRRLTESHHAHSSIENNAAASLRDVKAEQLESSGENLYFQ
notes: full-length PepTSo2, Shewanella oneidensis, UniProt Q8EHE6; Detergent-solubilised (DDM) for SEC; in Salipro nanoparticles (saposin A, DMPG) for cryo-EM; in monoolein lipidic cubic phase for crystals; also called tetrameric PepTSo2; purified PepTSo2; source: E. coli Rosetta 2 (DE3), purified (DDM solubilisation, Ni-NTA, TEV cleavage, second Ni-NTA, SEC); not shown: His6, C-terminal, cleaved
B2: C-terminally His6-tagged full-length PepTSo2 (tag kept, FSEC screening) (natural protein, S. oneidensis)
chain: MTLGTNQVSKTHSFMTVSLIELWERFGYYGMQALIVYFMVQRLGFDDSRANLVWSACAALIYVSPAIGGWVGDKILGTKRTMLLGAGILSVGYALMTVPTENTWFMFSALGVIVVGNGLFKPNAGNLVRKIYEGDDSKIDSAFTIYYMAVNVGSTFSMLLTPWIKDYVNAQYGNEFGWHAAFAVCCVGILVGLGNYALMHKSLANYGSEPDTRPVNKKSLAIVLALAALSVVASAIILEYEDVARVFVYAAGVAVLGIFFHLIRTSEPSERAGLIAALILTVQTVFFFIFYQQMSTSLALFALRNVDWDFQVFGTHLWTWSPAQFQALNPIWIMVLSPVLAWSYSWAGRNNKDFSIAAKFALGFAVVAIGFFIYGFAGQFAVNGKTSSWVMIWGYASYSLGELLVSGLGLAMIARYVPARMGGFMMGAYFVASGISQYLGGVVANFASVPQDLVDPLQTLPVYTNLFNKLGVAAVVCTIIALAVLPLMRRLTESHHAHSSIENNAAASLRDVKAEQLESSGENLYFQGQFTSSV
notes: full-length PepTSo2, Shewanella oneidensis, UniProt Q8EHE6; cloning artifact with the TEV protease site, between PepTSo2 and the His6 tag (not cleaved in this experiment); Detected in FSEC by the histidine tag-specific fluorescent probe P3NTA; also called His6-tagged PepTSo2; His6 construct; source: E. coli Rosetta 2 (DE3) or C41 (DE3) with pRARE, DDM-solubilised supernatant of disrupted cells; …

Key:
[1] = biological target: the molecule itself; experiment: SEC; purified PepTSo2 in DDM-containing buffer, Superose 6 Increase column, tryptophan fluorescence (excitation 280 nm, emission 350 nm)
[2] = biological target: the molecule itself; experiment: SEC; fluorescence-detection SEC (FSEC) of the DDM-solubilised supernatant of E. coli cells mixed with the His tag-specific probe P3NTA (excitation 482 nm, emission 520 nm)

Protein	stoichiometry N [1]	stoichiometry N [2]
B1	4	
B2		4
